Publication PMC7042088
Substitutions are numbered along the chain they refer to. In names and notes the source's numbering stands.

B1: O-GlcNAc transferase, truncated wild type (catalytic domain and 3.5 TPR repeats, residues 323-1044) (enzyme)
chain: CPTHADSLNNLANIKREQGNIEEAVRLYRKALEVFPEFAAAHSNLASVLQQQGKLQEALMHYKEAIRISPTFADAYSNMGNTLKEMQDVQGALQCYTRAIQINPAFADAHSNLASIHKDSGNIPEAIASYRTALKLKPDFPDAYCNLAHCLQIVCDWTDYDERMKKLVSIVADQLEKNRLPSVHPHHSMLYPLSHGFRKAIAERHGNLCLDKINVLHKPPYEHPKDLKLSDGRLRVGYVSSDFGNHPTSHLMQSIPGMHNPDKFEVFCYALSPDDGTNFRVKVMAEANHFIDLSQIPCNGKAADRIHQDGIHILVNMNGYTKGARNELFALRPAPIQAMWLGYPGTSGALFMDYIITDQETSPAEVAEQYSEKLAYMPHTFFIGDHANMFPHLKKKAVIDFKSNGHIYDNRIVLNGIDLKAFLDSLPDVKIVKMKCPDGGDNADSSNTALNMPVIPMNTIAEAVIEMINRGQIQITINGFSISNGLATTQINNKAATGEEVPRTIIVTTRSQYGLPEDAIVYCNFNQLYKIDPSTLQMWANILKRVPNSVLWLLRFPAVGEPNIQQYAQNMGLPQNRIIFSPVAPKEEHVRRGQLADVCLDTPLCNGHTTGMDVLWAGTPMVTMPGETLASRVAASQLTCLGCLELIAKNRQEYEDIAVKLGTDLEYLKKVRGKVWKQRISSPLFNTKQYTMELERLYLQMWEHYAAGNKPDHMIKPVEVTE
B2: O-GlcNAc transferase N648Y, truncated (catalytic domain and 3.5 TPR repeats, residues 323-1044) (enzyme)
chain: B1 chain with N326Y

Molecular target: fluorescently labelled UDP-peptide bisubstrate conjugate
Experiment: fluorescence polarisation; increasing concentrations of OGT titrated against a fixed concentration of the fluorescent probe; 0.1 M Tris/HCl pH 7.5, 0.15 M NaCl, 0.5 mM TCEP, 5% DMSO; 30 min in the dark

Binder	Kd [µM]
B1	1.6
B2	11
